Experiments:
Experiment in all cases: chloride ion selective electrode, initial rates, Michaelis-Menten fit
Settings in all cases: 10 mM phosphate buffer pH 7.0, 21–23°C, soluble protein fraction
[1] = substrate: [O-][Cl+]O; format: biochemical, Nitrospira defluvii
Text: chloride ion selective electrode, initial rates, Michaelis-Menten fit on rNdCld

[2] = substrate: [O-][Cl+]O; format: biochemical, Nitrobacter winogradskyi
Text: chloride ion selective electrode, initial rates, Michaelis-Menten fit on rNwCld

[3] = substrate: [O-][Cl+]O; format: biochemical, Ideonella dechloratans
Text: chloride ion selective electrode, initial rates, Michaelis-Menten fit on rIdCld

B1: rNdCld (Nitrospira defluvii) (protein)
chain: ADREKLLTESGVYGTFATFQMDHDWWDLPGESRVISVAEVKGLVEQWSGKILVESYLLRGLSDHADLMFRVHARTLSDTQQFLSAFMGTRLGRHLTSGGLLHGVSKKPTYVAGFPESMKTELQVNGESGSRPYAIVIPIKKDAEWWALDQEARTALMQEHTQAALPYLKTVKRKLYHSTGLDDVDFITYFETERLEDFHNLVRALQQVKEFRHNRRFGHPTLLGTMSPLDEILEKFAQ
notes: recombinant, plasmid pET21b-Ndcld (Dr. Daims) in E. coli BL21 (DE3); soluble protein fraction, not purified
Km [1]: 2500 ± 470 µM

B2: rNwCld (Nitrobacter winogradskyi Nb-255) (protein)
chain: MTFTVFTGGDSGAWSILSVAPVIGESLMAASHLAIAPSLSLGDTSATTPWQLRGVASHARYVERAEKIALTSVQAGLGRNEATRAALIPIRKSAAWWEMTQDERRAIFEDKSHHIAASLKYLPAIARQLYHCRDIGEPFDFLTWFEYAPEHATMFEDLVGVLRATEEWTYVEREVDIRLARAI
notes: recombinant, plasmid pET21b-Nwcld (Dr. Daims) in E. coli BL21 (DE3); soluble protein fraction, not purified
Km [2]: 380 ± 150 µM

B3: rIdCld (Ideonella dechloratans) (protein)
chain: AMNTPVDRAKILSAPGVFVAFSTYKIRPDYFKVALAERKGAADEVMAVLEKHKEKVIVDAYLTRGYEAKSDYFLRVHAYDAVAAQAFLVDFRATRFGMYSDVTESLVGITKALNYISKDKSPDLNKGLSGATYAGDAPRFAFMIPVKKNADWWNLTDEQRLKEMETHTLPTLPFLVNVKRKLYHSTGLDDTDFITYFETNDLGAFNNLMLSLAKVPENKYHVRWGNPTVLGTIQPIENLVKTLSMGN
notes: recombinant, plasmid pET3a-Idcld (Dr. Rova) in E. coli BL21 (DE3); soluble protein fraction, not purified
Km [3]: 320 ± 160 µM

— article PMC5733030, “Characterizing Isozymes of Chlorite Dismutase for Water Treatment” (Frontiers in Microbiology, 2017)
